Consider eight molecules from patent publication US20160159910A1 (Genentech, published 2016).

Test [1] concerns the target T1, human B7-H4 (human, UniProt Q7Z7D3 29-282).
T1 sequence: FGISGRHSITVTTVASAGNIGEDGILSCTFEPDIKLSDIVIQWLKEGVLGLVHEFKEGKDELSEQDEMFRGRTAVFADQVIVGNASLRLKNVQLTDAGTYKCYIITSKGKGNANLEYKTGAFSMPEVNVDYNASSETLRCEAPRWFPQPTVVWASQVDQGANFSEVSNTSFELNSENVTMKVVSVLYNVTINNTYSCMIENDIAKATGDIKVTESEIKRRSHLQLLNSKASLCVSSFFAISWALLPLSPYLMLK
Kind of test: cell-based or functional assay.

For test [2], the target named is T2, cynomolgus monkey B7-H4 (cynomolgus monkey, UniProt Q7Z7D3 29-282 (human entry)).
T2 construct: On stably transfected 293 cells; also called cyno B7-H4; recombinant cynomolgus monkey B7-H4
T2 chain: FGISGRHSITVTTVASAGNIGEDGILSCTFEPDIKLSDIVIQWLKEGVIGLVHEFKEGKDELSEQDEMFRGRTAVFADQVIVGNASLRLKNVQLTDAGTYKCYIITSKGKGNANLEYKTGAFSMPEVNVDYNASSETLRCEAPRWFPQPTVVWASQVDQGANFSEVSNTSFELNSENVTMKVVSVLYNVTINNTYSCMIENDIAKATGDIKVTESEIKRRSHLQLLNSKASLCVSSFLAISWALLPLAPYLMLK
As to the kind of experiment: FACS titration on 293 cells expressing recombinant cynomolgus B7-H4 (panel '293-cyno B7-H4', lower block), geometric mean fluorescence. On the procedure: (§1) The fluorescent signal was acquired with a BD FACS Calibur and EC₅₀ values were determined with the Graph Pad program Prism 4.

Test [3] concerns the target T1, human B7-H4. Kind of test: FACS titration on MX-1 tumor cells, endogenous human B7-H4 (panel 'MX-1 tumor cell line', lower block), geometric mean fluorescence. The method, then: as §1
In test [4] the target is T3, mouse B7-H4 (mouse, UniProt Q7TSP5 29-283).
T3 construct: On stably transfected 293 cells; also called muB7-H4; recombinant mouse B7-H4
T3 sequence: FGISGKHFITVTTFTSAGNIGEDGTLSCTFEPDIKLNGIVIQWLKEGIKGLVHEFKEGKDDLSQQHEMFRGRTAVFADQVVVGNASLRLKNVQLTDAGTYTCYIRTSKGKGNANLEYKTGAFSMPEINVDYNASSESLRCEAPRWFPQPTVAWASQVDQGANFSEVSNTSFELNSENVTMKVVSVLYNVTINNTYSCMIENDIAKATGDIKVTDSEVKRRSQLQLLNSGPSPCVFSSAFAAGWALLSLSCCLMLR
As to the kind of experiment: FACS titration on 293 cells expressing recombinant mouse B7-H4 (panel '293-mouse B7-H4', lower block), geometric mean fluorescence. On the procedure: as §1

In the next test the target is T4, rat B7-H4 (rat, UniProt Q501W4 29-282).
T4 construct: On stably transfected 293 cells; also called recombinant rat B7-H4
T4 sequence: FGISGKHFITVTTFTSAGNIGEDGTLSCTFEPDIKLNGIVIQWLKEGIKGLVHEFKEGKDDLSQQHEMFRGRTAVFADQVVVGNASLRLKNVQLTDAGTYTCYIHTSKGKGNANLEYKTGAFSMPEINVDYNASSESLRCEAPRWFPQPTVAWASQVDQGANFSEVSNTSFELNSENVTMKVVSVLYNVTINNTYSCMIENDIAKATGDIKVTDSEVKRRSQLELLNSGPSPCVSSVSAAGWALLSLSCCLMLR
As to the kind of experiment: Scatchard analysis, 125I-antibody radioligand cell binding on stably transfected 293 cells. On the procedure: (§2) Competition assay mixtures of 50 μL volume containing a fixed concentration of [I¹²⁵] labeled antibody and decreasing concentrations of serially diluted, unlabeled antibody were placed into 96-well plates. […] Cells were detached from the flask using Sigma Cell Dissociation Solution and were washed with binding buffer, which consisted of Dulbecco's Modified Eagle Medium (DMEM) with 1% bovine serum albumin (BSA), […] and 0.1% sodium azide. The washed cells were added to the 96 well plates at a density of 100,000 cells in 0.2 mL of binding buffer. The final concentration of the [I¹²⁵] labeled antibody in each well was ˜250 pM. The final concentration of the unlabeled antibody in the competition assay ranged from 1000 nM through ten 2-fold dilution steps to a 0 nM buffer-only assay. Competition assays were carried out in triplicate. Competition assays were incubated for 2 hours at room temperature. After the 2-hour incubation, the competition assays were transferred to a Millipore Multiscreen filter plate (Billerica, Mass.) and washed 4 times with binding buffer to separate the free from bound [I¹²⁵] labeled antibody. The filters were counted on a Wallac Wizard 1470 gamma counter (PerkinElmer Life and Analytical Sciences Inc.; Wellesley, Mass.). The binding data was evaluated using NewLigand software (Genentech), which uses the fitting algorithm of Munson and Robard to determine the binding affinity of the antibody (Munson and Robard 1980).

Test [5] has as its target T2, cynomolgus monkey B7-H4. The description is as above. The method, then: as §2
For test [6], the target named is T1, human B7-H4. The test is described as above. On the procedure: as §2
Test [7] concerns the target T3, mouse B7-H4. The test is described as above. The method, then: as §2
Test [8] deals with T1, human B7-H4. Kind of test: FACS titration on 293 cells expressing recombinant human B7-H4 (panel '293-human B7-H4', lower block), Dylight-650 goat anti-human IgG, geometric mean fluorescence. The method, then:
as §1

Test [9] has as its target T1, human B7-H4. Kind of test: Scatchard analysis, 125I-antibody radioligand cell binding on MX-1 tumor cells. The method, then:
as §2

Test [10] has as its target T5, human B7-H4 S114A glycosylation mutant (human, UniProt Q7Z7D3 29-282).
T5 construct: Full-length human B7-H4 membrane construct with S114 changed to alanine to prevent N-linked glycosylation at N112-S114; transiently expressed on 293 cells; also called mutated S114A human B7-H4; recombinant human B7-H4 S114A
T5 sequence: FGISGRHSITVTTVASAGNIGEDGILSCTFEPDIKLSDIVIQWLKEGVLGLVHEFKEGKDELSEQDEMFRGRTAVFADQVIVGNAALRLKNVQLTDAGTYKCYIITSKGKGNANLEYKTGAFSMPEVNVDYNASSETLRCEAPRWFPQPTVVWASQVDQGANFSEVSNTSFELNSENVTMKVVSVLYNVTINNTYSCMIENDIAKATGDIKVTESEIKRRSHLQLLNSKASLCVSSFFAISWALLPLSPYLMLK
Kind of test: FACS on 293 cells transfected with S114A human B7-H4 (glycosylation independence).

B1: hu1D11v1.9-varD-vc-MMAE (antibody)
heavy: not shown
light: DIQMTQSPSSLSASVGDRVTITCKASQGFNKYVAWYQQKPGKAPKLLIYYTSTLQPGVPSRFSGSGSGRDYTLTISSLQPEDFATYYCLQYGDLLYAFGQGTKVEIKRTVAAPSVFIFPPSDEQLKSGTASVVCLLNNFYPREAKVQWKVDNALQSGNSQESVTEQDSKDSTYSLSSTLTLSKADYEKHKVYACEVTHQGLSSPVTKSFNRGEC
modifications: MC-vc-PAB-MMAE conjugated to reduced cysteine residues of the antibody (sites not given); DAR ~3
B1: the “EC50 of in vitro killing (CellTiter-Glo cell viability, 4 days) of 293 cells over-expressing recombinant human B7-H4” value in the test with human B7-H4 [1] was 0.0554 µg/mL.

B2: hu1D11v1.9-varD IgG1 A118C-vc-MMAE (antibody)
heavy: not shown
light: DIQMTQSPSSLSASVGDRVTITCKASQGFNKYVAWYQQKPGKAPKLLIYYTSTLQPGVPSRFSGSGSGRDYTLTISSLQPEDFATYYCLQYGDLLYAFGQGTKVEIKRTVAAPSVFIFPPSDEQLKSGTASVVCLLNNFYPREAKVQWKVDNALQSGNSQESVTEQDSKDSTYSLSSTLTLSKADYEKHKVYACEVTHQGLSSPVTKSFNRGEC
modifications: MC-vc-PAB-MMAE on the engineered cysteine A118C (EU numbering); DAR ~2
As to B2, in the test with human B7-H4 [1], the “EC50 of in vitro killing (CellTiter-Glo cell viability, 4 days) of 293 cells over-expressing recombinant human B7-H4” value came out at 0.0819 µg/mL.

B3: hu22C10v2.7-vc-MMAE (antibody)
heavy: not shown
light: DIQMTQSPSSLSASVGDRVTITCSATSSISYMHWYQQKPGKAPKGWIYDTSKLAHGVPSRFSGSGSGTDFTLTISSLQPEDFATYYCHQRRSYPFTFGQGTKVEIKRTVAAPSVFIFPPSDEQLKSGTASVVCLLNNFYPREAKVQWKVDNALQSGNSQESVTEQDSKDSTYSLSSTLTLSKADYEKHKVYACEVTHQGLSSPVTKSFNRGEC
modifications: MC-vc-PAB-MMAE conjugated to reduced cysteine residues of the antibody (sites not given); DAR ~3
With B3, in the test with human B7-H4 [1], the “EC50 of in vitro killing (CellTiter-Glo cell viability, 4 days) of 293 cells over-expressing recombinant human B7-H4” value was found to be 0.0339 µg/mL.

B4: hu22C10v2.7 IgG1 A118C-vc-MMAE (antibody)
heavy: not shown
light: DIQMTQSPSSLSASVGDRVTITCSATSSISYMHWYQQKPGKAPKGWIYDTSKLAHGVPSRFSGSGSGTDFTLTISSLQPEDFATYYCHQRRSYPFTFGQGTKVEIKRTVAAPSVFIFPPSDEQLKSGTASVVCLLNNFYPREAKVQWKVDNALQSGNSQESVTEQDSKDSTYSLSSTLTLSKADYEKHKVYACEVTHQGLSSPVTKSFNRGEC
modifications: MC-vc-PAB-MMAE on the engineered cysteine A118C (EU numbering); DAR ~2
Consider B4, for which the “EC50 of in vitro killing (CellTiter-Glo cell viability, 4 days) of 293 cells over-expressing recombinant human B7-H4” value with human B7-H4 [1] came to 0.0405 µg/mL.

B5: chimeric antibody ch1D11 (antibody, human IgG1, V domains shown)
VH: QVQLQQSGAELVRPGTSVKMSCKASGYTFTSYWIGWAKQRPGHGFEWIGDIYPGGGYTNYNEKFKGKATLTADKSSSTAYMQFSSLTSEDSAIYYCARLDGSSYRGAMDSWGQGTSITVSS
VL: DIQMTQSPSSLSASLGGKVTITCKASQGFNKYVAWYQHKPGQCPRLLIHYTSTLQPGIPARFSGSGSGRDYSFSISNLEPEDSATYFCLQYGNLLYAFGGGTKLEIKR
notes: also called parental 1D11 antibody; antibody 1D11
On to B5, for which the EC50 with cynomolgus monkey B7-H4 [2] worked out at 0.66 µg/mL; in the test with human B7-H4 [3], 0.67 µg/mL; with mouse B7-H4 [4], 0.38 µg/mL; in the test with human B7-H4 [8], 0.96 µg/mL. The Kd with rat B7-H4 was determined as 4.1 nM; with cynomolgus monkey B7-H4 [5], 4.1 nM; with human B7-H4 [6], 6.1 nM; in the test with mouse B7-H4 [7], 9.4 nM; in the test with human B7-H4 [9], 7.8 nM.

B6: ch1D11, slightly modified version with light chain C43G (antibody, V domains shown)
VH: QVQLQQSGAELVRPGTSVKMSCKASGYTFTSYWIGWAKQRPGHGFEWIGDIYPGGGYTNYNEKFKGKATLTADKSSSTAYMQFSSLTSEDSAIYYCARLDGSSYRGAMDSWGQGTSITVSS
VL: DIQMTQSPSSLSASLGGKVTITCKASQGFNKYVAWYQHKPGQGPRLLIHYTSTLQPGIPARFSGSGSGRDYSFSISNLEPEDSATYFCLQYGNLLYAFGGGTKLEIKR
notes: Human IgG1 / human kappa chimeric antibody; Dylight-488 or -650 labeled in the assay; also called ch1D11 (C43G)
Turning to B6, in test [10], the “fold binding over the isotype control” value turned out to be 100 fold.

B7: humanized 1D11.v1.9 (antibody, V domains shown)
VH: EVQLVQSGAEVKKPGASVKVSCKASGYTFTSYWIGWVRQAPGQGLEWIGDIYPGGGYTNYNEKFKGRVTITRDTSTSTAYLELSSLRSEDTAVYYCARLDGSSYRGAMDSWGQGTLVTVSS
VL: DIQMTQSPSSLSASVGDRVTITCKASQGFNKYVAWYQQKPGKAPKLLIYYTSTLQPGVPSRFSGSGSGRDYTLTISSLQPEDFATYYCLQYGNLLYAFGQGTKVEIKR
notes: also called hu1D11.v1.9; h1D11.v1.9
On to B7, for which, in the test with mouse B7-H4 [4], the EC50 amounted to 0.36 µg/mL.

B8: chimeric antibody ch9B9 (antibody, human IgG1, V domains shown)
VH: QVQLQQSGAELMKPGASVKMSCKATGYTFSSYWIEWVKQRPGHGLEWIGEILPGTSITTYNAKFKVKATFTADTSSNTAYMQLSSLTSEDSAVYFCARYYFGSSSFYFDYWGQGTSLTVSS
VL: QAVVTQESALTTSPGDTVTLTCRSSTGAVTTSNYANWVQEKPDHLFTGLIGGTNNRVPGVPARFSGSLIGDKAALTITGAQTEDEAMYFCALWYNNHWVFGGGTKLE
notes: also called antibody 9B9
Consider B8, for which the “fold binding over the isotype control” value in test [10] was determined as 100 fold. The Kd came out at 4.7 nM in the test with rat B7-H4, 5.2 nM with cynomolgus monkey B7-H4 [5], 6.6 nM with human B7-H4 [6] and 13.7 nM in the test with mouse B7-H4 [7].
